Test results published in publication PMC9482650, “Quantitative fragmentomics allow affinity mapping of interactomes” (Nature Communications, 2022).

T1: ARHGEF11, O15085
T1 sequence (O15085 42-136, limits assumed, looked up): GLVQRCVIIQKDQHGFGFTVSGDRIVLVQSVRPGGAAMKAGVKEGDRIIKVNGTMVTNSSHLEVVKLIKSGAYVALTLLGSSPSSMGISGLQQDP

T2: CARD11, Q9BXL7
T2 sequence (Q9BXL7 662-765, limits assumed, looked up): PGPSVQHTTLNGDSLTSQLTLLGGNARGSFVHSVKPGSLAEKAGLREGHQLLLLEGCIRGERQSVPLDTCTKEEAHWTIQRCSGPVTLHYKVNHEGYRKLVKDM

T3: DVL3, Q92997
T3 sequence (Q92997 244-331, limits assumed, looked up): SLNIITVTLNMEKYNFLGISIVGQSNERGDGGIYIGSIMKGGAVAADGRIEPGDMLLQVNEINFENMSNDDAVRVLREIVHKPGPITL

T4: GRIP1_3, Q9Y3R0
T4 sequence (Q9Y3R0 247-346, limits assumed, looked up): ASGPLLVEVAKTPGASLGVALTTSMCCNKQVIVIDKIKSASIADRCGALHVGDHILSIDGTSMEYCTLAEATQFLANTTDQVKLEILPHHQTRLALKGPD

T5: GRIP1_7, Q9Y3R0
T5 sequence (Q9Y3R0 999-1096, limits assumed, looked up): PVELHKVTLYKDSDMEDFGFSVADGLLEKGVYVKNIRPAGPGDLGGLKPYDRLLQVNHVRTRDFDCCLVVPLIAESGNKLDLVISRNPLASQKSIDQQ

T6: HTRA3, P83110
T6 sequence (P83110 354-453, limits assumed, looked up): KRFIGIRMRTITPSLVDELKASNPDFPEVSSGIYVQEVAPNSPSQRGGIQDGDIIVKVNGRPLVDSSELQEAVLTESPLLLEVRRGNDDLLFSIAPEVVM

T7: LNX2_3, Q8N448
T7 sequence (Q8N448 463-564, limits assumed, looked up): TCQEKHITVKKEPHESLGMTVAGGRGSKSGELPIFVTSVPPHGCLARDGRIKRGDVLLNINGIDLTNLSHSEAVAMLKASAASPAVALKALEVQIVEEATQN

T8: LRRC7, Q96NW7
T8 sequence (Q96NW7 1440-1537, limits assumed, looked up): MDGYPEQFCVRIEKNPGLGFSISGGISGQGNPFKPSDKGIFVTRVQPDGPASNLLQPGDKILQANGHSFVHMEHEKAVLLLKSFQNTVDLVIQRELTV

T9: MPDZ_12, O75970
T9 sequence (O75970 1857-1958, limits assumed, looked up): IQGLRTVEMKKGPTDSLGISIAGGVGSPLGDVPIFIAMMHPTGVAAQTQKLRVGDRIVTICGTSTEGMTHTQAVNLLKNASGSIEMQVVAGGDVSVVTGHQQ

T10: RHPN1, Q8TCX5
T10 sequence (Q8TCX5 508-602, limits assumed, looked up): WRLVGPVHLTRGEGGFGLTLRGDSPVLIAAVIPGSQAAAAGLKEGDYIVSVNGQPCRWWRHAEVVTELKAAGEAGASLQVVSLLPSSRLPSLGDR


Columns and labels:
Test in all cases: holdup assay
Parameters in all cases: key: below the threshold = too weak to quantify, mostly under pKd 3.1 to 4
Details in all cases: plain residues with an end cap or a label only (N-terminal biotin on a linker: ado-ado)
ARHGEF11, O15085 = target: T1, ARHGEF11, O15085
CARD11, Q9BXL7 = target: T2, CARD11, Q9BXL7
DLG5_1, Q8TDM6 = target: DLG5_1, Q8TDM6
Chain of DLG5_1, Q8TDM6 (Q8TDM6 617-713): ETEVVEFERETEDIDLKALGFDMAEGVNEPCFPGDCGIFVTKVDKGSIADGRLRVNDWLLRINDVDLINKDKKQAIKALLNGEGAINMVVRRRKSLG

DVL3, Q92997 = target: T3, DVL3, Q92997
GIPC2, Q8TF65 = target: GIPC2, Q8TF65
Chain of GIPC2, Q8TF65 (Q8TF65 112-203): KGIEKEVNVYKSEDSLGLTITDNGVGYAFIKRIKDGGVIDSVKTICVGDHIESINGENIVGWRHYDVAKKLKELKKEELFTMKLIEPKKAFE

GRASP, Q7Z6J2 = target: GRASP, Q7Z6J2
Chain of GRASP, Q7Z6J2 (Q7Z6J2 96-193): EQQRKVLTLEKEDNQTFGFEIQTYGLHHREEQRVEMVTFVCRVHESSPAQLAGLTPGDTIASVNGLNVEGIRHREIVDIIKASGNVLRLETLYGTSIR

GRIP1_3, Q9Y3R0 = target: T4, GRIP1_3, Q9Y3R0
GRIP1_7, Q9Y3R0 = target: T5, GRIP1_7, Q9Y3R0
GRIP2_5, Q9C0E4 = target: GRIP2_5, Q9C0E4
Chain of GRIP2_5, Q9C0E4 (Q9C0E4 544-642): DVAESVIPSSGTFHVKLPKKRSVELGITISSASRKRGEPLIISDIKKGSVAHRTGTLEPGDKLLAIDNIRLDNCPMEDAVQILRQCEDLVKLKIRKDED

HTRA3, P83110 = target: T6, HTRA3, P83110
IL16_1, Q14005 = target: IL16_1, Q14005
Chain of IL16_1, Q14005 (Q14005 210-306): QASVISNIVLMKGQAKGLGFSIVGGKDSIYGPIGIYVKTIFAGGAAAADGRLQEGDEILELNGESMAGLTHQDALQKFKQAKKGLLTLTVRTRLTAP

Inadl_10, Q8NI35 = target: Inadl_10, Q8NI35
Chain of Inadl_10, Q8NI35 (Q8NI35 1673-1763): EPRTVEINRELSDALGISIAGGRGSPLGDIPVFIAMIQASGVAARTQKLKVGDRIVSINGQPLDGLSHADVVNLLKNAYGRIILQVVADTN

LDB3, O75112 = target: LDB3, O75112
Chain of LDB3, O75112 (O75112 1-94): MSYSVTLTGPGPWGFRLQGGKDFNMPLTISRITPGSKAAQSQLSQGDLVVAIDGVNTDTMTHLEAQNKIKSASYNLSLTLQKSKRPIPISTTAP

LNX1_1, Q8TBB1 = target: LNX1_1, Q8TBB1
Chain of LNX1_1, Q8TBB1 (Q8TBB1 261-371): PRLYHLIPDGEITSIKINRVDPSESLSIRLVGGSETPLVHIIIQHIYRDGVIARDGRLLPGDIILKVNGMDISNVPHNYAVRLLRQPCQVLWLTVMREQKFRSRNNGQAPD

LNX1_3, Q8TBB1 = target: LNX1_3, Q8TBB1
Chain of LNX1_3, Q8TBB1 (Q8TBB1 500-596): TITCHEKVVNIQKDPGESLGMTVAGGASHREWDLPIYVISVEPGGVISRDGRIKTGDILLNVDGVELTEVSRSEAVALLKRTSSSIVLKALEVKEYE

LNX2_3, Q8N448 = target: T7, LNX2_3, Q8N448
LRRC7, Q96NW7 = target: T8, LRRC7, Q96NW7
MAGI1_2, Q96QZ7 = target: MAGI1_2, Q96QZ7
Chain of MAGI1_2, Q96QZ7 (Q96QZ7 456-580): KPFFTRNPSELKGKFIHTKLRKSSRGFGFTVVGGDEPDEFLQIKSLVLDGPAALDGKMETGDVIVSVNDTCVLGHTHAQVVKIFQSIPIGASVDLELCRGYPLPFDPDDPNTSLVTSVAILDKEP

MAGI2_3, Q86UL8 = target: MAGI2_3, Q86UL8
Chain of MAGI2_3, Q86UL8 (Q86UL8 600-682): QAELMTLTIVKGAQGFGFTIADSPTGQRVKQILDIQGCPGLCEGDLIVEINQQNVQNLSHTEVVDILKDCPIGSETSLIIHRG

MPDZ_12, O75970 = target: T9, MPDZ_12, O75970
NHERF4_1, Q86UT5-2 = target: NHERF4_1, Q86UT5-2
Chain of NHERF4_1, Q86UT5-2 (Q86UT5 other isoform, or with tags, fused parts or gaps): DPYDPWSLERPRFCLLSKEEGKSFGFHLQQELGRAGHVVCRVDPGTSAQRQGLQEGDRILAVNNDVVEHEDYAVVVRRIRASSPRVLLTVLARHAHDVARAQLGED

NHERF4_2, Q86UT5 = target: NHERF4_2, Q86UT5
Chain of NHERF4_2, Q86UT5 (Q86UT5 220-308): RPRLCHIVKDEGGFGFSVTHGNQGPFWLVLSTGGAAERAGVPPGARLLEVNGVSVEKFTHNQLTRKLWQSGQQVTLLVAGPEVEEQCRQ

NHERF4_4, Q86UT5 = target: NHERF4_4, Q86UT5
Chain of NHERF4_4, Q86UT5 (Q86UT5 464-550): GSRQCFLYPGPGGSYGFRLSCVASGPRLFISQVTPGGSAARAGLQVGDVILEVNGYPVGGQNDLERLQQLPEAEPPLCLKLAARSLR

PDZRN4_1, Q6ZMN7 = target: PDZRN4_1, Q6ZMN7
Chain of PDZRN4_1, Q6ZMN7 (Q6ZMN7 213-318): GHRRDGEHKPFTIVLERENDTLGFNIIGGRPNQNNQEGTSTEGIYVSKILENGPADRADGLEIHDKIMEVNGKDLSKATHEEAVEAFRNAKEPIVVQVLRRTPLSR

RHPN1, Q8TCX5 = target: T10, RHPN1, Q8TCX5
SCRIB_1, Q14160 = target: SCRIB_1, Q14160
Chain of SCRIB_1, Q14160 (Q14160 718-814): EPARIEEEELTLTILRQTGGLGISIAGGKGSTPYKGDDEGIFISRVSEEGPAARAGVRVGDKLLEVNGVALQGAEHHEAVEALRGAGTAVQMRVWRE

TJP1_2, Q07157 = target: TJP1_2, Q07157
Chain of TJP1_2, Q07157 (Q07157 181-274): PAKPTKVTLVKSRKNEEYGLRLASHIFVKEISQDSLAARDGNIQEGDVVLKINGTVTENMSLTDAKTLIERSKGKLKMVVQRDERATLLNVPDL

TJP1_3, Q07157 = target: TJP1_3, Q07157
Chain of TJP1_3, Q07157 (Q07157 416-512): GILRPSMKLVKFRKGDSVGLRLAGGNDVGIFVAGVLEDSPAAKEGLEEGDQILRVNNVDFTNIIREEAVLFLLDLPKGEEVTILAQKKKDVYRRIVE

Binder | pKd (ARHGEF11, O15085) | pKd (CARD11, Q9BXL7) | pKd (DLG5_1, Q8TDM6) | pKd (DVL3, Q92997) | pKd (GIPC2, Q8TF65) | pKd (GRASP, Q7Z6J2) | pKd (GRIP1_3, Q9Y3R0) | pKd (GRIP1_7, Q9Y3R0) | pKd (GRIP2_5, Q9C0E4) | pKd (HTRA3, P83110) | pKd (IL16_1, Q14005) | pKd (Inadl_10, Q8NI35) | pKd (LDB3, O75112) | pKd (LNX1_1, Q8TBB1) | pKd (LNX1_3, Q8TBB1) | pKd (LNX2_3, Q8N448) | pKd (LRRC7, Q96NW7) | pKd (MAGI1_2, Q96QZ7) | pKd (MAGI2_3, Q86UL8) | pKd (MPDZ_12, O75970) | further results
RELVMRVTTV [MARCHF4, Q9P2E8] | 4.71 | below the threshold | below the threshold | below the threshold | below the threshold | 4.63 | below the threshold | below the threshold | below the threshold | below the threshold | 4.33 | below the threshold | below the threshold | 3.98 | below the threshold | below the threshold | 3.6 | 4.81 | 4.56 | below the threshold | pKd (NHERF4_1, Q86UT5-2): below the threshold; pKd (NHERF4_2, Q86UT5): below the threshold; pKd (NHERF4_4, Q86UT5): below the threshold; pKd (PDZRN4_1, Q6ZMN7): 3.88; pKd (RHPN1, Q8TCX5): 4.06; pKd (SCRIB_1, Q14160): 4.67; pKd (TJP1_2, Q07157): below the threshold; pKd (TJP1_3, Q07157): below the threshold
LEPAVRSSEL [SH2D3C, Q8N5H7] | 4.18 | below the threshold | below the threshold | below the threshold | below the threshold | 4.43 | below the threshold | below the threshold | below the threshold | below the threshold | below the threshold | below the threshold | below the threshold | 3.67 | below the threshold | below the threshold | below the threshold | below the threshold | below the threshold | below the threshold | pKd (NHERF4_1, Q86UT5-2): 4.18; pKd (NHERF4_2, Q86UT5): below the threshold; pKd (NHERF4_4, Q86UT5): 3.6; pKd (PDZRN4_1, Q6ZMN7): 3.9; pKd (RHPN1, Q8TCX5): 3.66; pKd (SCRIB_1, Q14160): 3.78; pKd (TJP1_2, Q07157): below the threshold; pKd (TJP1_3, Q07157): below the threshold
DQPLEKSTKL [AKAP10, O43572] | 4.2 | below the threshold | below the threshold | below the threshold | below the threshold | 4.06 | below the threshold | below the threshold | below the threshold | below the threshold | below the threshold | below the threshold | below the threshold | below the threshold | below the threshold | below the threshold | below the threshold | below the threshold | below the threshold | 3.73 | pKd (NHERF4_1, Q86UT5-2): 4.28; pKd (NHERF4_2, Q86UT5): below the threshold; pKd (NHERF4_4, Q86UT5): below the threshold; pKd (PDZRN4_1, Q6ZMN7): 3.92; pKd (RHPN1, Q8TCX5): 3.96; pKd (SCRIB_1, Q14160): 3.72; pKd (TJP1_2, Q07157): below the threshold; pKd (TJP1_3, Q07157): below the threshold
QFTLRHWLKV [SLC6A3, Q01959] | below the threshold | below the threshold | below the threshold | below the threshold | below the threshold | 3.8 | below the threshold | below the threshold | below the threshold | below the threshold | below the threshold | below the threshold | below the threshold | below the threshold | 3.83 | below the threshold | below the threshold | below the threshold | below the threshold | below the threshold | pKd (NHERF4_1, Q86UT5-2): below the threshold; pKd (NHERF4_2, Q86UT5): below the threshold; pKd (NHERF4_4, Q86UT5): 3.65; pKd (PDZRN4_1, Q6ZMN7): below the threshold; pKd (RHPN1, Q8TCX5): below the threshold; pKd (SCRIB_1, Q14160): below the threshold; pKd (TJP1_2, Q07157): 4.19; pKd (TJP1_3, Q07157): below the threshold
